Biological target: the molecule itself
Assay: native gel or EMSA; native PAGE with Coomassie blue staining; CK2β refolded in 20 mM Tris pH 7.2, 5 mM DTT with 4 μM ZnSO4 (presence of Zn2+); monomer to dimer

B1: CK2β (casein kinase 2 regulatory β subunit), human, recombinant His-tagged (natural protein)
chain: not shown
notes: human CK2β (casein kinase 2 beta subunit), Gene ID 1460, CSNK2B; cloned into pET-28a(+); The plasmid is named pET-28a (+)-HIS-CK2β; also called CSNK2B; HIS-CK2β
In the case of B1, the “stoichiometry N” value is reported as 2.

Source: PMC10474099, “SLC39A10 promotes malignant phenotypes of gastric cancer cells by activating the CK2-mediated MAPK/ERK and PI3K/AKT pathways” (Experimental & Molecular Medicine, 2023)
